Measurements from PMC4265319.

Assays:
[1] = biological target: T1, KdpE (Staphylococcus aureus) (UniProt Q2FWH6); experiment: EMSA; details: EMSA 25 C, 20 min, 20 ul, 1x binding buffer, 2.5% glycerol, 50 ng/ml poly(dI-dC), 0.05% NP-40; CymR/KdpE buffer: 20 mM Tris-HCl pH 7.5, 10 mM MgCl2, 100 mM …
T1 sequence: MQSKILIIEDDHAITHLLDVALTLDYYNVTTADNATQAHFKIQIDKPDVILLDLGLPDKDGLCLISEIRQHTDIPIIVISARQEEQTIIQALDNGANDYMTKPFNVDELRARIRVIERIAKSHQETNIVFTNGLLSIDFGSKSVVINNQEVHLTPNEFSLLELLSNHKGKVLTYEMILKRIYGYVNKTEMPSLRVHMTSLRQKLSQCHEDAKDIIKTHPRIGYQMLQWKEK

[2] = biological target: T2, LacR (Staphylococcus aureus) (UniProt Q5HE08); experiment: EMSA; details: EMSA 25 C, 20 min, 20 ul, 1x binding buffer, 2.5% glycerol, 50 ng/ml poly(dI-dC), 0.05% NP-40; CymR/KdpE buffer: 20 mM Tris-HCl pH 7.5, 10 mM MgCl2, 100 mM …
T2 sequence: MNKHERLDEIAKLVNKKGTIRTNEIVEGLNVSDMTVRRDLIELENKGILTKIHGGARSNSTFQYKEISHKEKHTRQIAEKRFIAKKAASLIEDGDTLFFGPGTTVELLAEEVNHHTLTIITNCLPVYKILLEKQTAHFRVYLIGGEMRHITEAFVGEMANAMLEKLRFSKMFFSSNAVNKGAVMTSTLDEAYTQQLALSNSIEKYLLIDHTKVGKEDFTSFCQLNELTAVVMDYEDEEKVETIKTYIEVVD

| Sequence | binding [1] | binding [2] |
| --- | --- | --- |
| GTAATCCATTGTTACCTCCCGATTACAAATTTTGTTCTATCTACTATTTAGCAAAGTAATAATACATCATATCACATTAAATTAATTACTTATGTCTTATATTTAACACTTAATTTAGCGATTACGCAAATGAATGATTTTTCTAAATATTTTATTCTAACTTTATCCGGAAATATTTGTTATACGTATAACTTGGAGAATGACTACTTGAAATTTAATGACGTATACAACAAACACCAC (double strand) [sigS promoter] | binds | no binding |
| GACATAACCTTCACCTCGATAGCAATATCATAATATTCTTCACAATTAAATGCTATAAAATTTATTTCTGCATACACATCTTAATGATTTCTTAATAACTAAGTTTGAAAATTAATATTTCTCTCATAAACAAGTTGTTACGATGTTGTTGTGTTGTAAGGAGGTTATGGCAATGCTCATCGTTTTATTACTGGTAGTTATTGCATTAGTTTTGTATTTATTTTATGCCTTAATTCGTAGTGAAAAATTTTAGAAATATATTAAGTGAGGGTTATCATGG (double strand) [kdpFABC promoter] | binds |  |
